For experiment [1], the target named is recombinant human FcγRIIb protein (human) (UniProt P31994). The experiment is described as follows: Biacore.
The next experiment has as its target FcγRIIaR (human) (UniProt P12318). Briefly: Biacore. (SPR reads the build-up and loss of mass on a sensor chip optically.)

Sequence of FcγRIIaR (human) (P12318 34-217 H167R limits assumed): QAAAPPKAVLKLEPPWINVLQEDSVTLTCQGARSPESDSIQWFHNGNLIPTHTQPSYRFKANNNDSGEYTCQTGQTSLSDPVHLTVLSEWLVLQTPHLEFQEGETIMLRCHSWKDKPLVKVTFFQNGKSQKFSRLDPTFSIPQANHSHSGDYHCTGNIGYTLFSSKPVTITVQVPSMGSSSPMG
Sequence of recombinant human FcγRIIb protein (human) (P31994 46-217 limits assumed): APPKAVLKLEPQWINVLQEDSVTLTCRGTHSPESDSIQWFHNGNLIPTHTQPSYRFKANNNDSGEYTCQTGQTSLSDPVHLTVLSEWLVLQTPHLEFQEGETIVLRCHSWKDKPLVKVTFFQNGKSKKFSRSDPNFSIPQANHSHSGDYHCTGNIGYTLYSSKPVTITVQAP

Broadly, the Kd is the constant that tells how readily two partners part at equilibrium. As for S239D/A327D/L328Y (antibody), in experiment [1], the Fold turned out to be 11.9 and the Kd is 0.123 µM.

For G236E/S267E (antibody), in experiment [1], the Fold worked out at 11.4 and the Kd worked out at 0.129 µM. Moreover, in the experiment with FcγRIIaR (human), the Fold stood at 36.5 and the Kd is 0.0235 µM.

On to S239D/K326D/L328Y (antibody), for which, in experiment [1], the Fold came out at 13 and the Kd worked out at 0.113 µM.

Regarding V266D (antibody), in experiment [1], the Fold came to 0.147 and the Kd was 10 µM. Besides, in the experiment with FcγRIIaR (human), the Fold turned out to be 0.704 and the Kd was found to be 1.22 µM.

For G236W (antibody), in experiment [1], the Fold came out at 0.147 and the Kd was found to be 10 µM. In the experiment with FcγRIIaR (human), this substance registered a Fold of 0.0859 and a Kd of 10 µM.

As for L234V (antibody), in experiment [1], the Fold stood at 0.456 and the Kd was determined as 3.22 µM. In the experiment with FcγRIIaR (human), this substance registered a Fold of 0.134 and a Kd of 6.42 µM.

For the substance L235N (antibody), in experiment [1], the Fold stood at 0.147 and the Kd was 10 µM. In the experiment with FcγRIIaR (human), this substance gave a Fold of 0.0356 and a Kd of 24.1 µM.

On to S267E/L328I (antibody), for which, in experiment [1], the Fold is 53.4 and the Kd was determined as 0.0275 µM. In the experiment with FcγRIIaR (human), this substance came in with a Fold of 74 and a Kd of 0.0116 µM.

Consider G236R (antibody), for which, in experiment [1], the Fold stood at 0.0147 and the Kd came to 100 µM. In the experiment with FcγRIIaR (human), this substance showed a Fold of 0.00859 and a Kd of 100 µM.

G236H (antibody): in the experiment with FcγRIIaR (human), the Fold was determined as 0.135 and the Kd turned out to be 6.35 µM.

G236D/H268D (antibody): in experiment [1], the Fold is 11.6 and the Kd came to 0.126 µM.

As to H268D/L328Y/I332E (antibody), in experiment [1], the Fold was found to be 4.89 and the Kd came to 0.3 µM.

Turning to H268N (antibody), in experiment [1], the Fold was determined as 1.17 and the Kd worked out at 1.25 µM. In the experiment with FcγRIIaR (human), this substance came in with a Fold of 1.79 and a Kd of 0.481 µM.

With G236V (antibody), the results for the Fold (in experiment [1]; in the experiment with FcγRIIaR (human)) were 0.0147 and 0.106, respectively. Besides, the results for the Kd (in experiment [1]; in the experiment with FcγRIIaR (human)) were 100 µM and 8.08 µM, respectively.

Regarding G237E (antibody), the Fold is 0.0147 in experiment [1] and 0.00859 with FcγRIIaR (human). Also, the Kd (in experiment [1]; with FcγRIIaR (human)) was 100 µM each time.

G236Q (antibody): the results for the Fold (in experiment [1]; with FcγRIIaR (human)) were 0.147 and 0.0859, respectively. The Kd (in experiment [1]; with FcγRIIaR (human)) was 10 µM in each case.

Take L235T/S267E (antibody): in experiment [1], the Fold stood at 2.37 and the Kd turned out to be 0.619 µM. Besides, in the experiment with FcγRIIaR (human), the Fold is 3.06 and the Kd worked out at 0.281 µM.

With P331S (antibody), in experiment [1], the Fold was determined as 0.0372 and the Kd was determined as 39.4 µM.

Take L234Y (antibody): in experiment [1], the Fold was determined as 0.0237 and the Kd was found to be 61.9 µM. In the experiment with FcγRIIaR (human), this substance came in with a Fold of 0.0511 and a Kd of 16.8 µM.

In the case of S239D/H268D/L328F (antibody), in experiment [1], the Fold worked out at 8.79 and the Kd was found to be 0.167 µM.

With S267D/H268E (antibody), in experiment [1], the Fold stood at 17.8 and the Kd was determined as 0.0826 µM.

Consider L235E (antibody), for which the Fold in experiment [1] was found to be 0.55; with FcγRIIaR (human), 0.333. Further, the Kd in experiment [1] was found to be 2.67 µM; in the experiment with FcγRIIaR (human), 2.58 µM.

As for S267E/L328H (antibody), in experiment [1], the Fold came to 5.17 and the Kd amounted to 0.284 µM. In the experiment with FcγRIIaR (human), this substance came in with a Fold of 4.64 and a Kd of 0.185 µM.

In the case of S267D/A327D (antibody), in experiment [1], the Fold came out at 6.89 and the Kd worked out at 0.213 µM.

As for G237V (antibody), in experiment [1], the Fold is 0.147 and the Kd is 10 µM. In the experiment with FcγRIIaR (human), this substance had a Fold of 0.0342 and a Kd of 25.1 µM.

In the experiment with FcγRIIaR (human), H268Q (antibody) displayed a Fold of 1.58 and a Kd of 0.544 µM.

Take S267A/H268D/L328Y (antibody): in experiment [1], the Fold came out at 10.7 and the Kd was 0.137 µM.

Regarding L235S (antibody), in experiment [1], the Fold turned out to be 0.0147 and the Kd stood at 100 µM. Moreover, in the experiment with FcγRIIaR (human), the Fold was 0.00859 and the Kd was determined as 100 µM.

For H268E/L328Y/I332E (antibody), in experiment [1], the Fold was determined as 8.53 and the Kd was determined as 0.172 µM.

S239D/H268D/L328Y (antibody): in experiment [1], the Fold was 24.4 and the Kd was determined as 0.0601 µM.

Take S267D/H268D (antibody): in experiment [1], the Fold came out at 14.2 and the Kd amounted to 0.103 µM.

Regarding G236K (antibody), the Fold in experiment [1] is 0.0147; in the experiment with FcγRIIaR (human), 0.00859. Further, the Kd (in experiment [1]; with FcγRIIaR (human)) was 100 µM each time.

As for S239D/L328Y/I332E (antibody), in experiment [1], the Fold stood at 7.41 and the Kd turned out to be 0.198 µM.

On to S267A/L328Y/I332E (antibody), for which, in experiment [1], the Fold turned out to be 13.5 and the Kd turned out to be 0.109 µM.

As for A327D/L328Y/I332E (antibody), in experiment [1], the Fold stood at 2.31 and the Kd amounted to 0.636 µM.

On to S239D/L328Y (antibody), for which, in experiment [1], the Fold amounted to 5.56 and the Kd was determined as 0.264 µM.

As to L234W/S239D/L328Y (antibody), in experiment [1], the Fold is 32.8 and the Kd was determined as 0.0448 µM.

As to A330S (antibody), in experiment [1], the Fold came to 0.0635 and the Kd came out at 23.1 µM.

Take A327G (antibody): in experiment [1], the Fold was determined as 0.353 and the dissociation constant Kd was found to be 4.16 µM. In the experiment with FcγRIIaR (human), the Fold was 0.319 and the Kd turned out to be 2.69 µM.

As for K326D/L328Y/I332E (antibody), in experiment [1], the Fold turned out to be 2.65 and the Kd stood at 0.553 µM.

For S267E/H268D (antibody), in experiment [1], the Fold was determined as 33.3 and the Kd turned out to be 0.044 µM.

For L234G (antibody), the Fold was 0.147 in experiment [1] and 0.0859 in the experiment with FcγRIIaR (human). For the same substance, the Kd (in experiment [1]; with FcγRIIaR (human)) was 10 µM each time.

On to S239D/H268D/L328F/I332E (antibody), for which, in experiment [1], the Fold is 53.2 and the Kd came out at 0.0276 µM.

With S267E/N325L (antibody), in experiment [1], the Fold turned out to be 31.5 and the Kd is 0.0466 µM. In the experiment with FcγRIIaR (human), this substance returned a Fold of 41.5 and a Kd of 0.0207 µM.

Regarding H268D/K326D/L328Y (antibody), in experiment [1], the Fold was 18.6 and the Kd was found to be 0.0789 µM.

Consider G236P (antibody), for which the Fold amounted to 0.147 in experiment [1] and 0.0859 with FcγRIIaR (human). For the same substance, the Kd (in experiment [1]; with FcγRIIaR (human)) was 10 µM each time.

S239D/H268D (antibody): in experiment [1], the Fold worked out at 14.4 and the Kd was 0.102 µM.

With H268D/A327D (antibody), in experiment [1], the Fold was found to be 7.68 and the Kd amounted to 0.191 µM.

Regarding L234E/H268D (antibody), in experiment [1], the Fold is 5.89 and the dissociation constant (Kd) was 0.249 µM.

As to L235D/S239D (antibody), in experiment [1], the Fold stood at 4.11 and the Kd came to 0.357 µM.

On to S239D/H268D/L328W/I332E (antibody), for which, in experiment [1], the Fold was 27.8 and the Kd came out at 0.0527 µM.

For the substance A330K (antibody), in experiment [1], the Fold was found to be 1.55 and the Kd was found to be 0.947 µM.

Regarding S239D/H268D/L328W (antibody), in experiment [1], the Fold was found to be 51.1 and the Kd came out at 0.0287 µM.

Turning to S267E/L328Q (antibody), in experiment [1], the Fold was determined as 12.1 and the Kd was 0.121 µM.

On to L234W/H268D/L328Y (antibody), for which, in experiment [1], the Fold is 5.92 and the Kd was 0.248 µM.

In the experiment with FcγRIIaR (human), L235Q (antibody) displayed a Fold of 2.04 and a Kd of 0.42 µM.

On to K326W (antibody), for which, in experiment [1], the Fold is 3.04 and the Kd is 0.483 µM.

As to H268D/L328Y (antibody), in experiment [1], the Fold worked out at 1.91 and the Kd was found to be 0.767 µM.

As for S239D/H268E/L328Y (antibody), in experiment [1], the Fold is 21.7 and the Kd came to 0.0677 µM.

As to H268D/A327D/L328Y (antibody), in experiment [1], the Fold amounted to 3.49 and the Kd amounted to 0.42 µM.

Regarding H268D/L328W/I332E (antibody), in experiment [1], the Fold was found to be 39.8 and the Kd came to 0.0369 µM.

With K326E (antibody), in experiment [1], the Fold came out at 6.09 and the Kd amounted to 0.241 µM.

Regarding L234W/L328Y/I332E (antibody), in experiment [1], the Fold was 6.32 and the Kd came out at 0.232 µM.

For S239D/S267E/I332E (antibody), in experiment [1], the Fold was 124 and the Kd was found to be 0.0118 µM.

As to L235F/L328Y/I332E (antibody), in experiment [1], the Fold turned out to be 3.31 and the Kd was determined as 0.443 µM.

As for L328Y/I332E (antibody), in experiment [1], the Fold was 2.08 and the Kd worked out at 0.705 µM.

Consider S239D/S267D (antibody), for which, in experiment [1], the Fold was determined as 22.3 and the Kd stood at 0.0659 µM.

Take H268D/L328F/I332E (antibody): in experiment [1], the Fold came out at 12.3 and the Kd came out at 0.119 µM.

As to L235F/S239D/L328Y (antibody), in experiment [1], the Fold came out at 6.82 and the Kd was determined as 0.215 µM.

Take S267D/A327E (antibody): in experiment [1], the Fold worked out at 12.1 and the Kd amounted to 0.121 µM.

Regarding L235Y/S267D (antibody), in experiment [1], the Fold stood at 15.9 and the Kd was 0.0922 µM.

In the case of S239D/S267A/L328Y (antibody), in experiment [1], the Fold came out at 19.8 and the Kd is 0.0741 µM.

On to G236A/G237A (antibody), for which, in experiment [1], the Fold amounted to 0.0578 and the Kd is 25.4 µM.

Consider S239D/H268D/L328Y/I332E (antibody), for which, in experiment [1], the Fold came out at 54.1 and the Kd came to 0.0271 µM.

In the case of L235S/S267E (antibody), the Kd in experiment [1] turned out to be 37.8 µM.

As to L235F/H268D/L328Y (antibody), in experiment [1], the Fold was found to be 3.97 and the Kd was determined as 0.37 µM.

In the case of G236S/G237A (antibody), in experiment [1], the Fold is 0.0797 and the Kd came to 18.4 µM.

As to S239D/L328F/I332E (antibody), in experiment [1], the Fold is 8.34 and the Kd stood at 0.176 µM.

For the origin of these results see patent publication US20140212436A1.
